This is an account of results in the supplement of paper PMC10201428.

± gives the standard deviation of the averaged measurements.

B1: library; a variant is named by its letters at N, in order (parent)
chain: AATGTTGTTGATGCAACCATAAAGTGATATTTAATAATTATTTATAATCAGCAACTTAACCACAAAACAACCATATATTGATATNTCACAAAACAACCATAANTTGATATTTTTGTGAATCGAGTATTTCAGCAAAACTACTGCAGTAAGAA

Data set [1] covers variants of B1. As to the kind of experiment: relative integration efficiency (T-LR orientation) vs wild-type transposon end (log2 (normalized fold change)); transposon end mutated: left end; higher = more efficient transposition. To be noted: with VchCAST RNA-guided transposition machinery (E. coli BL21(DE3) host, lacZ target). The procedure:
(§1)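 Pooled, barcoded VchCAST (Tn6677) mini-transposon donor libraries; each variable transposon-end sequence sits in a fixed pDonor mini-transposon context (10-bp barcode and cargo not included). Left- or right-end libraries were co-transformed with pEffector (TniQ-Cascade, TnsABC, lacZ crRNA, T7, 0.1 mM IPTG) into E. coli BL21(DE3) and grown 18 h at 37 C. T-LR and T-RL junction amplicons were sequenced; output/input barcode fold change was normalised to the mean of four wild-type barcodes and log2-transformed. Two biological replicates; zero-count/undetected variants carry floor values (-10 / -15), censored here. Barcode uncoupling by PCR recombination adds noise.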

Variants of B1 are the subject of data set [2]. Briefly: relative integration efficiency (T-RL orientation) vs wild-type transposon end (log2 (normalized fold change)); transposon end mutated: left end; higher = more efficient transposition. The settings on record: with VchCAST RNA-guided transposition machinery (E. coli BL21(DE3) host, lacZ target). The procedure:
as §1

Turning to CA A23G G24T A33T A96C T110A T113A, the “relative integration efficiency (log2)” value in data set [1] is -0.448 ± 0.74; in data set [2], -0.516 ± 0.28.
For TA A16C G24T T30A T76A T78A T84A C87A T104A T110A T113A the same measures were 0.114 ± 0.83 and -0.0645 ± 0.35.
The matching figures for CA A16C G24T T30A A96C T110A T113A: -0.499 ± 0.66 and -0.208 ± 0.19.
The matching figures for TA A16C G24T T30A T76A T78A T84A C87A A96C T112G T113C: -0.55 ± 0.9 and -0.0685 ± 0.46.
As to CA A22T G24T T31C A33C A96C T110A T113A, the figures for the “relative integration efficiency (log2)” value in data set [1] and in data set [2] were -0.837 ± 0.2 and -0.802 ± 0.25, respectively.
Consider TA A23G G24T A33T T76A A77G C87T T104G T113A, for which the “relative integration efficiency (log2)” value is 0.309 ± 0.37 in data set [1] and -0.339 ± 0.36 in data set [2].
For TA A16C G24T T32G A33C T76A A77G C87T A102T T111C T113C the same measures were -1.56 ± 0.58 and -1.11 ± 0.63.
For TA A23G G24T A33T T76A T78G C87A A96C T110A T113A the same measures were 0.938 ± 0.63 and 0.884 ± 0.19.
On to TA A16C G24T T30A A70C T76A T86G A96C T110A T113A, for which the “relative integration efficiency (log2)” value in data set [1] is -0.0192 ± 0.24; in data set [2], -0.213 ± 0.29.
The matching figures for CA A16C G24T T30A T104A T110A T113A: -0.532 ± 0.028 and -0.543 ± 0.56.
Take TA A16C G24T T32G A33C T76A T78G C87A A96C T112G T113C: the “relative integration efficiency (log2)” value in data set [1] was -0.523 ± 0.65; in data set [2], -0.344 ± 0.18.
For TA A22T G24T T31C A33C A70C T76A T86G T104A T110A T113A the same measures were -0.292 ± 0.24 and -0.768 ± 0.47.
For TA A22T G24T T31C A33C T76A T78A T84A C87A A96C T112G T113C the same measures were -0.159 ± 0.75 and -0.261 ± 0.33.
The matching figures for TA A22T G24T T31C A33C T76A T78G C87A A96C T112G T113C: -0.491 ± 0.49 and -0.16 ± 0.22.
As for TA A23G G24T A33T T76A A77G C87T A96C T110A T113A, the figures for the “relative integration efficiency (log2)” value in data set [1] and in data set [2] were -0.603 ± 0.67 and -0.516 ± 0.48, respectively.
The matching figures for TA A16C G24T T32G A33C T76A T78A T84A C87A A96C T112G T113C: -0.572 ± 0.31 and -0.447 ± 0.34.
For CA A22T G24T T31C A33C T104A T110A T113A the same measures were -0.859 ± 0.31 and -0.686 ± 0.34.
For TA A16C G24T T32G A33C T76A A77G C87T A96C T110A T113A the same measures were -1.08 ± 1.6 and -0.54 ± 0.44.
Take TA A16C G24T T30A A70C T76A T86G A96C T112G T113C: the “relative integration efficiency (log2)” value was -0.394 ± 0.73 in data set [1] and -0.421 ± 0.27 in data set [2].
For TA A22T G24T T31C A33C T76A A77G C87T A102T T111C T113C the same measures were -0.361 ± 0.78 and -0.688 ± 0.55.
For TA A16C G24T T32G A33C T76A T78A T84A C87A T104G T113A the same measures were -0.166 ± 0.52 and -0.296 ± 0.42.
The matching figures for TA A22T G24T T31C A33C A70C T76A T84A C87A A96C T110A T113A: -0.841 ± 0.82 and -0.504 ± 0.43.
For TA A16C G24T T30A T76A T78A T84A C87A T104G T113A, the entries for the “relative integration efficiency (log2)” value in data set [1] and in data set [2] were -0.559 ± 0.18 and -0.412 ± 0.26, respectively.
As for CA A16C G24T T32G A33C A96C T110A T113A, the results for the “relative integration efficiency (log2)” value in data set [1] and in data set [2] were -1.02 ± 1.2 and -0.362 ± 0.31, respectively.
For CA A22T G24T T31C A33C A102T T111C T113C the same measures were -0.528 ± 0.39 and -0.843 ± 0.57.
As to TA A16C G24T T30A T76A A77G C87T A96C T112G T113C, the “relative integration efficiency (log2)” value in data set [1] was 0.0498 ± 0.26; in data set [2], -0.0655 ± 0.56.
As to TA A22T G24T T31C A33C T76A A77G C87T A96C T112G T113C, the “relative integration efficiency (log2)” value was -0.0329 ± 0.84 in data set [1] and -0.66 ± 0.42 in data set [2].
For TA A22T G24T T31C A33C A70C T76A T86G A96C T112G T113C the same measures were -0.771 ± 0.36 and -0.328 ± 0.2.
The matching figures for TA A23G G24T A33T A70C T76A T84A C87A A102T T111C T113C: -0.166 ± 0.29 and 0.133 ± 0.28.
The matching figures for TA A16C G24T T30A A70C T76A T84A C87A A102T T111C T113C: -0.517 ± 1.4 and -0.107 ± 0.55.
TA A16C G24T T32G A33C T76A T78A T84A C87A A96C T110A T113A: the “relative integration efficiency (log2)” value is -0.572 ± 0.61 in data set [1] and -0.189 ± 0.31 in data set [2].
In the case of TA A16C G24T T30A A70C T76A T86G A102T T111C T113C, the figures for the “relative integration efficiency (log2)” value in data set [1] and in data set [2] were -0.48 ± 1.4 and -0.134 ± 0.32, respectively.
The matching figures for CA A23G G24T A33T A102T T111C T113C: -0.354 ± 0.18 and -0.967 ± 0.39.
The matching figures for TA A16C G24T T30A T76A A77G C87T T104A T110A T113A: -0.222 ± 0.22 and -0.901 ± 0.53.
For TA A16C G24T T32G A33C T76A T78A T84A C87A A102T T111C T113C the same measures were -0.59 ± 0.77 and -0.405 ± 0.22.
Regarding TA A16C G24T T30A T76A A77G C87T A102T T111C T113C, the “relative integration efficiency (log2)” value was -1.05 ± 1.4 in data set [1] and -0.994 ± 0.46 in data set [2].
For TA A23G G24T A33T A70C T76A T84A C87A T104G T113A the same measures were -0.16 ± 0.29 and -0.158 ± 0.26.
The matching figures for TA A16C G24T T32G A33C A70C T76A T86G T104G T113A: -0.573 ± 0.99 and -0.869 ± 0.48.
For TA A16C G24T T32G A33C A70C T76A T86G A102T T111C T113C the same measures were -1.2 ± 0.65 and -0.838 ± 0.29.
With TA A16C G24T T32G A33C A70C T76A T86G A96C T110A T113A, the “relative integration efficiency (log2)” value in data set [1] is -0.842 ± 0.018; in data set [2], -0.63 ± 0.38.
The matching figures for TA A22T G24T T31C A33C A70C T76A T84A C87A T104A T110A T113A: -0.378 ± 0.91 and -0.553 ± 0.35.
For TA A23G G24T A33T T76A T78A T84A C87A A96C T110A T113A the same measures were 0.43 ± 0.2 and 0.182 ± 0.35.
For TA A16C G24T T32G A33C T76A A77G C87T A96C T112G T113C the same measures were -0.88 ± 1.2 and -0.489 ± 0.45.
As to TA A22T G24T T31C A33C T76A T78A T84A C87A A102T T111C T113C, the “relative integration efficiency (log2)” value in data set [1] is -0.838 ± 1.2; in data set [2] it was -0.485 ± 0.43.
For CA A16C G24T T32G A33C A102T T111C T113C the same measures were -0.854 ± 0.58 and -0.751 ± 0.51.
The matching figures for TA A16C G24T T32G A33C T76A T78G C87A T104G T113A: -0.174 ± 1.1 and -0.675 ± 0.24.
Turning to TA A22T G24T T31C A33C A70C T76A T86G A102T T111C T113C, the “relative integration efficiency (log2)” value in data set [1] was -0.793 ± 0.32; in data set [2] it was -0.813 ± 0.39.
For TA A22T G24T T31C A33C T76A T78G C87A A96C T110A T113A the same measures were -0.606 ± 0.66 and -0.329 ± 0.25.
The matching figures for TA A22T G24T T31C A33C T76A T78A T84A C87A A96C T110A T113A: -0.768 ± 1.2 and -0.365 ± 0.32.
For TA A23G G24T A33T T76A A77G C87T T104A T110A T113A the same measures were 0.0613 ± 0.2 and -0.917 ± 0.47.
For the variant TA A16C G24T T30A T76A T78G C87A T104A T110A T113A, the results for the “relative integration efficiency (log2)” value in data set [1] and in data set [2] were -0.00394 ± 0.69 and -0.0421 ± 0.16, respectively.
TA A16C G24T T32G A33C T76A A77G C87T T104G T113A: the “relative integration efficiency (log2)” value in data set [1] was -0.746 ± 0.94; in data set [2], -1.52 ± 0.61.
For TA A23G G24T A33T T76A T78A T84A C87A A102T T111C T113C the same measures were -0.26 ± 0.5 and 0.131 ± 0.23.
The matching figures for TA A16C G24T T30A T76A T78G C87A A102T T111C T113C: -0.495 ± 0.48 and -0.243 ± 0.23.
For TA A23G G24T A33T T76A A77G C87T A96C T112G T113C the same measures were -0.402 ± 0.62 and -0.2 ± 0.18.
With TA A16C G24T T30A A70C T76A T84A C87A A96C T112G T113C, the “relative integration efficiency (log2)” value in data set [1] is -0.489 ± 0.88; in data set [2], 0.259 ± 0.14.
In the case of CA A16C G24T T32G A33C T104A T110A T113A, the “relative integration efficiency (log2)” value in data set [1] was -0.927 ± 0.11; in data set [2] it was -0.976 ± 0.39.
For TA A16C G24T T32G A33C A70C T76A T84A C87A A96C T110A T113A the same measures were -0.499 ± 1.2 and -0.0812 ± 0.47.
